{"source": "paper doi:10.1101/2022.10.27.514150", "target": "Gluc1-ΔN(1–433)", "assay": "split reporter"}
{"substance": "Gluc2-E2F4 FL (from UniProt Q16254 1-413) (natural protein)", "values": [{"measurement": "normalized luminescence ratio (NLR)", "value": "> 20"}]}
